Data on four molecules can be found in US20170183388A1 (REGENTS OF THE UNIVERSITY OF COLORADO A BODY CORPORATE, published 2017).

The target in assay [1] is T1, BioPure recombinant Aβ42 (UniProt P05067 672-713).
T1 construct: domain: Aβ(1-42); Recombinant peptide from AmideBio, coupled to AminoLink resin or to SPR chips by EDC-NHS; For treating neurons the peptide came from R Peptide or AmideBio; also called Aβ(1-42); amyloid β
Kind of assay: pull-down of whole brain synaptosome proteins on Aβ42 coupled to AminoLink resin, western blot [A]. (Immunoblotting shows a protein as a band on a membrane.)

Assay [2] addresses T1, BioPure recombinant Aβ42. Kind of assay: Aβ42 coupled to AminoLink resin, mouse whole brain synaptosome extract, western blot.

T1 sequence (P05067 672-713 limits assumed): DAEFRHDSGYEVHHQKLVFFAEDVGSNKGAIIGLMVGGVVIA

B1: Mouse synaptogyrin1 (endogenous, from brain synaptosomes) (other, UniProt O55100 1-234, looked up)
chain: MEGGAYGAGKAGGAFDPYTLVRQPHTILRVVSWVFSIVVFGSIVNEGYLNNPEEEEEFCIYNRNPNACSYGVTVGVLAFLTCLLYLALDVYFPQISSVKDRKKAVLSDIGVSAFWAFFWFVGFCFLANQWQVSKPKDNPLNEGTDAARAAIAFSFFSIFTWAGQAVLAFQRYQIGADSALFSQDYMDPSQDSSMPYAPYVEPSAGSDPAGMGGTYQHPANAFDAEPQGYQSQGY
notes: SYP paralog, 22% identity as printed; also called SNG1; synaptogyrinl
As for B1, the binding result with BioPure recombinant Aβ42 [1] is listed as “no binding”.

B2: Mouse synaptophysin (endogenous, from brain synaptosomes or cultured neurons) (other, UniProt Q62277 1-314, looked up)
chain: MLLLADMDVVNQLVAGGQFRVVKEPLGFVKVLQWVFAIFAFATCGSYTGELRLSVECANKTESALNIEVEFEYPFRLHQVYFDAPSCVKGGTTKIFLVGDYSSSAEFFVTVAVFAFLYSMGALATYIFLQNKYRENNKGPMMDFLATAVFAFMWLVSSSAWAKGLSDVKMATDPENIIKEMPMCRQTGNTCKELRDPVTSGLNTSVVFGFLNLVLWVGNLWFVFKETGWAAPFMRAPPGAPEKQPAPGDAYGDAGYGQGPGGYGPQDSYGPQGGYQPDYGQPASGGGGGYGPQGDYGQQGYGQQGAPTSFSNQM
notes: Endogenous protein detected by western blot; also called SYP; Syp
As to B2, in the assay with BioPure recombinant Aβ42 [2], the binding result is “binds”.

B3: Mouse synaptoporin (endogenous, from brain synaptosomes) (other, UniProt Q8BGN8 1-265, looked up)
chain: MCMVIFAPLFAMFAFATCGGYSGGLRLSVDCVNKTESNLSIDIAFAYPFRLQQVTFEVPTCEGKEQQKLALVGDSSSSAEFFVTVAVFAFLYSLAATVVYIFFQNKYRENNRGPLIDFIVTVVFSFLWLVGSSAWAKGLSDVKVATDPKEVLLLMSACKQPSNKCMAVHSPVMSSLNTSVVFGFLNFILWAGNIWFVFKETGWHSSGQRYLSDPMEKHSSSYNQGRYNQESYGSSGGYSQQANLGPTSDEFGQQPSGPTSFNNQI
notes: SYP paralog, 62% identity as printed; also called SYNPR
Take B3: in the assay with BioPure recombinant Aβ42 [1], the binding result is reported as “no binding”.

B4: Mouse MAP2 (endogenous, from brain synaptosomes) (other, UniProt P20357 1-1828, looked up)
chain: MADERKDEGKAPHWTSASLTEAAAHPHSPEMKDQGGAGEGLSRNANGFPYREEEEGAFGEHRSQGTYSDTKENGINGELTSADRETAEEVSARIVQVVTAEAVAVLKGEQEKEAQHKDQPAALPLAAEETANLPPSPPPSPASEQTATVEEDLLTASKMEFPEQEKFPSSFAEPLDKGEMEFKMPSKPGEDFEHAALVPDTSKTPQDKKDLQGMEGEKLPPVPFAQTFGTNLEDRKQSTEPSIVMPSIGLSAEPPAPKEPKDWFIEMPTESKKDEWGLAAPISPGPLTPMREKDVLEDIPRWEGKQFDSPMPSPFHGGSFTLPLDTMKNERVSEGPRPFAPVFFQSDDKVSLQDPSALATSKESSKDEEPLKDKADKVADVSISEVTTLLGNVHSPVVEGYVGENISGEVKVTTDQEKKETSAPSVQEPTLTETEPQTKLDEKSTVSIEEAVAKKEESFKLRDDKTGVIQTSTEQSFSKEDQKGQEHTIDELKQDSFPISLEQAVTDAAMTSKTLGKVTSEPEAVSERREIQGLFEEKTADKNKLEGAGSATIAEVEMPFYEDKSGMSKYFETSALKEDMTRSTELGSDYYELSDSRGSAQESLDTISPKNQHDEKELQAKASQPSPPAQEAGYSTLAQSYTPDHPSELPEEPSSPQERMFTIDPKVYGEKRDLHSKNKDDLTLSRSLGLGGRSAIEQRSMSINLPMSCLDSIALGFNFGRGHDLSPLASDILTNTSGSMDEGDDYLPPTTPAVEKMPCFPIESKEEEDKAEQAKVTGGQTIQVETSSESPFPAKEYYKNGTVMAPDLPEMLDLAGTRSRLASVSADAEVARRKSVPSEAMLAESSTSLPPVADESPVTVKPDSQLEDMGYCVFNKYTVPLPSPVQDSENLSGESGSFYEGTDDKVRRDLATDLSLIEVKLAAAGRVKDEFTAEKEASPPTSADKSRLSREFDHDRKANDKLDTVLEKSEEHIDSKEHAKESEEMGGKVELFGLGITYDQASTKELITTKDTSPEKTEKGLSSVPEVAEVEPTTKADQGLDFAATKAEPSQLDIKVSDFGQMASGMNVDAGKAIELKFEVAQELTLSSEAPQEADSFMGVESGHIKEGGKVNETEVKEKVTKPDLVHQEAVDKEESYESSGEHESLTMESLKPDEGKKETSPETSLIQDEVALKLSVEIPCPPPVSEADLSTDEKGEVQMEFIQLPKEESTETPDIPAIPSDVTQPQPEAIVSEPAEVPSEEEEIEAGGEYDKLLFRSDTLQISDLLVSESREEFVETCPGELKGVVESVVTIEDDFITVVQTTTDEGESGSHSVRFAAPAQPEEERRPRPHDEELEIEMAAEAQAEPKDGSPDAPATPEKEEVAFSEYKTETYDDYKDETTIDDSIMDADSLWVDTQDDDRSILTEQLETIPKEERAEKDARRPSLEKHRKEKPFKTGRGRISTPERKVAKKEPSTVSRDEVRRKKAVYKKAELAKKSEVQAHSPSRKLILKPAIKYTRPTHLSCVKRKTTAASGDLAQAPGAFKQAKDKVTDGISKSPEKRSSLPRPSSILPPRRGVSGDREENSFSLNSSISSARRTTRSEPIRRAGKSGTSTPTTPGSTAITPGTPPSYSSRTPGTPGTPSYPRTPGTPKSGILVPSEKKVAIIRTPPKSPATPKQLRLINQPLPDLKNVKSKIGSTDNIKYQPKGGQVQIVTKKIDLSHVTSKCGSLKNIRHRPGGGRVKIESVKLDFKEKAQAKVGSLDNAHHVPGGGNVKIDSQKLNFREHAKARVDHGAEIITQSPSRSSVASPRRLSNVSSSGSINLLESPQLATLAEDVTAALAKQGL
notes: Loading control; also called loading control
As to B4, the binding result in the assay with BioPure recombinant Aβ42 [1] is recorded as “no binding”.
